Values quoted from earlier work in publication PMC8620506.

Molecular target: NS4B (Dengue virus) (UniProt P27909)

NS4A (from UniProt P27909)
Kd: 50 nM
